From US20220220212A1 (RESEARCH FOUNDATION FOR THE STATE UNIVERSITY OF NEW YORK, published 2022)

How the values were obtained:
[1] = target: T1, biotinylated N-terminal domain CCR2 peptide (murine, biotinylated (position not given)); test: phage ELISA on the N-terminal peptide
T1 construct: Bought from ABclonal; also called CCR2 N-terminal domain; CCR2 N-terminus
T1 peptide: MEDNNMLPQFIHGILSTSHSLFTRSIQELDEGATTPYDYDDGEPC
Procedure: Nunc MaxiSorp 96-well plates were coated with NeutrAvidin at 5 μg/mL and incubated overnight at 4° C. The plate was thoroughly washed with 0.1% PBS-Tween (PBST), and 5 μg/mL biotinylated N-terminal domain CCR2 peptide ([…] (SEQ ID NO:58); ABclonal, Woburn, Mass.) added and incubated for 1 h at room temperature. The wells were washed with 0.1% PBST and then blocked with casein blocking buffer for 1 h at room temperature. The wells were washed with 0.1% PBST followed by incubation of serially diluted scFv for 1 h at room temperature before being washed five times with 0.1% PBST. Washes were followed by the addition of 100 uL of the respective horse-radish peroxidase (HRP)-linked monoclonal antibody (mAb) for 1 h at room temperature with rocking. An anti-M13 mAb was used to detect phages (#27-9421-01, GE healthcare, Chicago, Ill.) and an anti-flag mAb was used to detect scFv (#A8592, Sigma Aldrich, St. Louis, Mo.). The wells were washed with 0.1% PBST followed by the addition of TMB-ELISA substrate. After 10 min incubation, 2 M H₂SO₄ was added to stop the reaction. The absorbance was measured at 450 nm with a FilterMax F3 & F5 multi-mode microplate reader (Molecular Devices, Sunnyvale, Calif.). A 1:1 binding ratio Hill model was used to fit the binding interaction data.

[2] = target: T2, ECL2 domain of the CCR2 chemokine receptor; test: binding assay of FIG. 16A,B on the ECL2 domain (method not given)
T2 construct: also called CCR2 ECL2; 2nd extracellular loop of CCR2
T2 peptide: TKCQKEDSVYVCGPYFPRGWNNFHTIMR

B1: phage clone 13F (scFv)
scFv: LQAVLTQPSSLSASPGASASLTCILRSDFSVVTQRVYWYQQKPGSPPRYLLRYNSDSDKRLGSGVPSRFSGSKDVSANAASLLISGLQSDDEADYYCVIWHNSAVVFGGGTKLTVLGEGKSSGSGSESKASEVQLLESGAEVKKPGESLKISCKGSGYSFTSYWIGWVRQMPGKGLEWMGIIYPGDSDTRYSPSFQGQVTISADKSISTAYLQWSSLKASDTAMYYCARRPQYYDILTGWHAGWFDPWGQGTLVTVSS
notes: also called 13F-scFv
- binding result [1]: binds

B2: phage clone 26B (scFv)
scFv: LQSVLTQPPSASGTPGQRVTISCSGSSSNIGSNYVYWYQQLPGTAPKLLIYRNNQRPSGVPDRFSGSKSGTSASLAISGLQSEDEADYYCAAWDDSLNGVVFGGGTELTVLGEGKSSGSGSESKASQVTLKESGAEVKKPGASVKVSCKASGYTFTNFYIHWVRRAPGQGLEWMGIINPSDGRTTYAQKFQGRVTMTRDTSTSTLYMELTSLRSEDTAVYYCGRGGHYSNYFGQPSTWGQGTLVTVSS
notes: also called 26B-scFv
- binding result [1]: binds

B3: phage clone 25B (scFv)
scFv: LQSVLTQPPSVSGAPGQKVTISCSGSSSNIGNNYVSWYQQLPGTAPKLLIYGNNKRPSGIPDRFSGSKSGTSATLGITGLQTGDEADYYCATWDDSLSAVVFGGGTKLTVLGEGKSSGSGSESKASQVTLKESGAEVKKPGASVKVSCKASGYTFTNFYIHWVRRAPGQGLEWMGIINPSDGRTTYAQKFQGRVTMTRDTSTSTLYMELTSLRSEDTAVYYCGRGGHYSNYFGQPSTWGQGTLVTVSS
notes: also called 25B-scFv
- binding result [1]: binds

B4: ECL2-scFv (scFv)
scFv: DYKDDDDKLQSVLTQPPSASGTPGQRVTISCSGSSSNIGSHTVNWYQQLPGTAPKLLIYRNNQRPSGVPDRFSGSKSGTSASLAISGLRSEDEADYYCAAWDDSLSGVVFGGGTKLTVLGEGKSSGSGSESKASQVTLKESGAEVKKPGASVKVSCKASGYTFTNFYIHWVRRAPGQGLEWMGIINPSDGRTTYAQKFQGRVTMTRDTSTSTLYMELTSLRSEDTAVYYCGRGGHYSNYFGQPSTWGQGTLVTVSSVEAS
notes: the construct as expressed is not described; also called 4h-scFv
- Kd [2]: 5.3 nM
